Read-outs that look alike come from different tables or passages of the source.
T1: Human TIGIT (SPR analyte, Example 7) (human, UniProt Q495A1 22-141, limits assumed)
T1 sequence (looked up): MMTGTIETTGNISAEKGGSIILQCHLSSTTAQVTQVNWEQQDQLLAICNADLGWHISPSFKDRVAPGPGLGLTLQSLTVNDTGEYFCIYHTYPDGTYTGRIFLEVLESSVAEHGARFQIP

T2: human TIGIT on CHOK1-huTIGIT-2A3 cells (human, UniProt Q495A1 22-244)
T2 construct: whole, on cells; also called cells expressing the human TIGIT
T2 sequence (looked up): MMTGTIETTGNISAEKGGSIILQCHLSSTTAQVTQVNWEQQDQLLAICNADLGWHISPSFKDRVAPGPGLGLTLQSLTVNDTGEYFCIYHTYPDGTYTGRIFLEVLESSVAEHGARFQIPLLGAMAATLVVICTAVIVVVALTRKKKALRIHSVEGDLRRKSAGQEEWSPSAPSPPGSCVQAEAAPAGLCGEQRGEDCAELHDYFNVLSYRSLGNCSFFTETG


Columns and labels:
[1] = molecular target: T3, Human PD-L1 (SPR analyte, Example 7) (human, UniProt Q9NZQ7 19-238, limits assumed); assay: SPR (Biacore 8K), antibody captured by anti-human chip, antigen analyte, 1:1 model
Description: (§1) The Anti-Human Capture-CMS chip (GE, #BR-1005-30) was prepared according to the method for conjugating the Human Antibody Capture Kit (GE, #BR-1008-39) to the Amino Conjugation Kit (GE, BR-1000-50).

[2] = molecular target: T1, Human TIGIT (SPR analyte, Example 7); assay: as above
Description: as §1

[3] = molecular target: PD-L1 on CHO-K1-0S8-PD-L1-8D6 cells; assay: cell-based or functional assay
[4] = molecular target: T2, human TIGIT on CHOK1-huTIGIT-2A3 cells; assay: flow cytometry on CHOK1-huTIGIT-2A3 cells
Description: All chimeric antibodies and humanized antibodies were diluted to 20 μg/ml with 1% BSA in PBS solution (1% BSA/PBS), were added to a 96-well U-shaped plate at 20 μL per well; and a negative control (with 1% BSA/PBS added only) was set up at the same time. The suspension of cells (CHOK1-huTIGIT-2A3, Huabo Biopharm) expressing human TIGIT during the logarithmic growth phase were centrifuged (1000 rpm×5 min) to discard the culture medium; and the cells were resuspended with 1% BSA/PBS until the density of viable cells was 1×10⁶/mL, and were added, at 20 μL (2×10⁴ cells) per well, to the 96-well U-shaped plate with the anti-TIGIT antibody to react for 30 min at room temperature. After reaction, the 96-well U-shaped plate was resuspended with 1% BSA/PBS, centrifuged (300 g×3 min) to discard the supernatant, and washed once in such a way; and PE-goat anti-human-Fc (Jackson ImmunoResearch, #109-115-098) diluted at 1:200 was added to react for 15 min in the dark at room temperature. After reaction, the 96-well U-shaped plate was resuspended with 1% BSA/PBS, centrifuged (300 g×3 min) to discard the supernatant, washed three times in such a way, and finally resuspended with 100 μL of 1% BSA/PBS for each wall; and the fluorescence intensity of a PE channel was detected with a flow cytometer (BD, #CantoII).

[5] = molecular target: T2, human TIGIT on CHOK1-huTIGIT-2A3 cells; assay: flow cytometry competition with huCD155-moFc on CHOK1-huTIGIT-2A3 cells
Description: After reaction, the 96-well U-shaped plate was resuspended with 1% BSA/PBS, centrifuged (300 g×3 min) to discard the supernatant, and washed once in such way; and Alexa488-goat anti-mouse-Fc (Jackson ImmunoResearch, #115-545-071) diluted at 1:300 was added to react for 15 min in the dark at room temperature. After reaction, the 96-well U-shaped plate was resuspended with 1% BSA/PBS, centrifuged (300 g×3 min) to discard the supernatant, washed three times in such a way, and finally resuspended with 100 μL of 1% BSA/PBS for each wall; and the fluorescence intensity of an FITC channel was detected with a flow cytometer (BD, #CantoII).

[6] = molecular target: TIGIT on Jurkat-TIGIT-22G8 cells; assay: cell-based or functional assay
[7] = molecular target: T3, Human PD-L1 (SPR analyte, Example 7); assay: SPR (Biacore 8K), antibody captured by anti-human chip, antigen analyte, 1:1 model; remark: listed apart in the source
Description: as §1

[8] = molecular target: T1, Human TIGIT (SPR analyte, Example 7); assay: as above; remark: listed apart in the source
Description: as §1

T3 sequence (Q9NZQ7 19-238 limits assumed): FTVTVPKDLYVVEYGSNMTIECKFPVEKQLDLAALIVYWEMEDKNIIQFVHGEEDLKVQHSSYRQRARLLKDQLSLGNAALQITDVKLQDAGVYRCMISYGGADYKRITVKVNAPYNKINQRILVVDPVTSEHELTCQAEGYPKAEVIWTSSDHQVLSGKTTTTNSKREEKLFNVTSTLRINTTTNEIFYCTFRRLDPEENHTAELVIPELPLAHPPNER
Chain of PD-L1 on CHO-K1-0S8-PD-L1-8D6 cells (Q9NZQ7 whole entry): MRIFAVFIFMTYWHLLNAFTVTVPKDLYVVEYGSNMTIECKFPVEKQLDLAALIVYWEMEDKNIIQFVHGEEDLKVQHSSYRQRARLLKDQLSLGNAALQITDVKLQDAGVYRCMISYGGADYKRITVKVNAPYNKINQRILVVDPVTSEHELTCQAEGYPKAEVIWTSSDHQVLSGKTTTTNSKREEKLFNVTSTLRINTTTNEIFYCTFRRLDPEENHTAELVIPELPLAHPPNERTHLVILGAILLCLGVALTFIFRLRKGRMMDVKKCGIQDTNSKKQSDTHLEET

EC50 [4] [µg/mL]	IC50 [5] [µg/mL]	EC50 (nM), IL2 secretion of Jurkat-TIGIT-22G8 cells with PHA and CD155 [6] [nM]	Kd [7] [nM]	koff [7] [s⁻¹]	kon [7] [M⁻¹ s⁻¹]	Kd [8] [nM]	koff [8] [s⁻¹]	kon [8] [M⁻¹ s⁻¹]	Binder	also measured
0.0785	0.0919								HB0032 (antibody, human IgG1, kappa, V domains shown, Humanized anti-TIGIT IgG1; also called 900466) VH: QVQLQESGPGLVKPSETLSLTCTVSGYSITSDYAWIWIRQPPGKKLEWIGYITSSGSTYYNPSLKSRVTFSVDTSKNQFSLKLSSVTAADTATYYCARLDFGNYGGAMDYWGQGTLVTVSS VL: DIQMTQSPSSLSASVGDRVTITCKASQHVSTAVNWYQQKPGKAPKLLIYSASYRQSGVPSRFSGSGSGTDFTLTISSLQPEDFATYYCQQHYITPYTFGQGTKLEIKR	
0.0514	0.056								HB0033 (antibody, human IgG1, kappa, V domains shown, Humanized anti-TIGIT IgG1; also called 900476) VH: QVQLQESGPGLVKPSETLSLTCTVSGYSITSDYAWIWIRQPPGNKLEWIGYITSSGSTYYNPSLKSRVTFSVDTSKNQFSLKLSSVTAADTATYYCARLDFGNYGGAMDYWGQGTLVTVSS VL: DIQMTQSPSSLSASVGDRVTITCKASQHVSTALAWYQQKPGKAPKLLIYSASYLQSGVPSRFSGSRSGTDFTLTISSLQPEDFATYYCQQHYITPYTFGQGTKLEIKR	
		8.64	1.05	0.000492	469000	0.0478	0.000196	4.1e+06	900683 (bispecific antibody, human IgG1, kappa, also called TIGIT-IgG-PD-L1-scFv) heavy: not shown light: DIQMTQSPSSLSASVGDRVTITCRASQHVSTAVNWYQQKPGKAPKLLIYSASYLYSGVPSRFSGSRSGTDFTLTISSLQPEDFATYYCQQHYITPYTFGQGTKLEIKRTVAAPSVFIFPPSDEQLKSGTASVVCLLNNFYPREAKVQWKVDNALQSGNSQESVTEQDSKDSTYSLSSTLTLSKADYEKHKVYACEVTHQGLSSPVTKSFNRGEC	
		12.1	2.76	0.000527	191000	0.0428	0.00021	4.89e+06	900685 (bispecific antibody, human IgG1, kappa, also called TIGIT-IgG-PD-L1-scFv) heavy: not shown light: DIQMTQSPSSLSASVGDRVTITCRASQHVSTAVNWYQQKPGKAPKLLIYSASYLYSGVPSRFSGSRSGTDFTLTISSLQPEDFATYYCQQHYITPYTFGQGTKLEIKRTVAAPSVFIFPPSDEQLKSGTASVVCLLNNFYPREAKVQWKVDNALQSGNSQESVTEQDSKDSTYSLSSTLTLSKADYEKHKVYACEVTHQGLSSPVTKSFNRGEC	
		11	1.37	0.00038	278000	0.0515	0.000204	3.96e+06	900687 (bispecific antibody, human IgG1, kappa, also called TIGIT-IgG-PD-L1-scFv) heavy: not shown light: DIQMTQSPSSLSASVGDRVTITCRASQHVSTAVNWYQQKPGKAPKLLIYSASYLYSGVPSRFSGSRSGTDFTLTISSLQPEDFATYYCQQHYITPYTFGQGTKLEIKRTVAAPSVFIFPPSDEQLKSGTASVVCLLNNFYPREAKVQWKVDNALQSGNSQESVTEQDSKDSTYSLSSTLTLSKADYEKHKVYACEVTHQGLSSPVTKSFNRGEC	

Continued, binder first:

Binder	EC50 [4] [µg/mL]	IC50 [5] [µg/mL]	EC50 (nM), IL2 secretion of Jurkat-TIGIT-22G8 cells with PHA and CD155 [6] [nM]	Kd [7] [nM]	koff [7] [s⁻¹]	kon [7] [M⁻¹ s⁻¹]	Kd [8] [nM]	koff [8] [s⁻¹]	kon [8] [M⁻¹ s⁻¹]	also measured
900691 (bispecific antibody, human IgG1, kappa, also called PD-L1-IgG-TIGIT-scFv) heavy: not shown light: DVVMTQTPLSLSVTPGQPASISCKSSQSLANSYGNTYLSWYLHKPGQSPQLLIYGISNRFSGVPDRFSGSGSGTDFTLKISRVEAEDVGVYYCLQGTHQPPTFGQGTKLEIKRTVAAPSVFIFPPSDEQLKSGTASVVCLLNNFYPREAKVQWKVDNALQSGNSQESVTEQDSKDSTYSLSSTLTLSKADYEKHKVYACEVTHQGLSSPVTKSFNRGEC										Kd [1]: 2.24 nM; koff [1]: 0.000481 s⁻¹; kon [1]: 214000 M⁻¹ s⁻¹; Kd [2]: 0.0925 nM; koff [2]: 9.13e-05 s⁻¹; kon [2]: 987000 M⁻¹ s⁻¹; EC50 (nM), luciferase reporter, Jurkat-NFAT-PD-1-5B8 cells with CHO-K1-0S8-PD-L1-8D6 cells [3]: 1.84 nM
HB0031 (antibody, human IgG1, kappa, V domains shown, Humanized anti-TIGIT IgG1; also called 900464) VH: QVQLQESGPGLVKPSETLSLTCTVSGYSITSDYAWIWIRQPPGKGLEWIGYITSSGSTYYNPSLKSRVTFSVDTSKNQFSLKLSSVTAADTATYYCARLDFGNYGGAMDYWGQGTLVTVSS VL: DIQMTQSPSSLSASVGDRVTITCKASQHVSTALAWYQQKPGKAPKLLIYSASYLQSGVPSRFSGSRSGTDFTLTISSLQPEDFATYYCQQHYITPYTFGQGTKLEIKR	0.0581	0.0665								
900686 (bispecific antibody, human IgG1, kappa, also called TIGIT-IgG-PD-L1-scFv) heavy: not shown light: DIQMTQSPSSLSASVGDRVTITCRASQHVSTAVNWYQQKPGKAPKLLIYSASYLYSGVPSRFSGSRSGTDFTLTISSLQPEDFATYYCQQHYITPYTFGQGTKLEIKRTVAAPSVFIFPPSDEQLKSGTASVVCLLNNFYPREAKVQWKVDNALQSGNSQESVTEQDSKDSTYSLSSTLTLSKADYEKHKVYACEVTHQGLSSPVTKSFNRGEC			12.9	0.893	0.000419	469000	0.0476	0.0002	4.19e+06	
900681 (bispecific antibody, human IgG1, kappa, also called TIGIT-IgG-PD-L1-scFv) heavy: not shown light: DIQMTQSPSSLSASVGDRVTITCRASQHVSTAVNWYQQKPGKAPKLLIYSASYLYSGVPSRFSGSRSGTDFTLTISSLQPEDFATYYCQQHYITPYTFGQGTKLEIKRTVAAPSVFIFPPSDEQLKSGTASVVCLLNNFYPREAKVQWKVDNALQSGNSQESVTEQDSKDSTYSLSSTLTLSKADYEKHKVYACEVTHQGLSSPVTKSFNRGEC			8.96	1.47	0.000427	290000	0.0693	0.000245	3.53e+06	
900684 (bispecific antibody, human IgG1, kappa, also called TIGIT-IgG-PD-L1-scFv) heavy: not shown light: DIQMTQSPSSLSASVGDRVTITCRASQHVSTAVNWYQQKPGKAPKLLIYSASYLYSGVPSRFSGSRSGTDFTLTISSLQPEDFATYYCQQHYITPYTFGQGTKLEIKRTVAAPSVFIFPPSDEQLKSGTASVVCLLNNFYPREAKVQWKVDNALQSGNSQESVTEQDSKDSTYSLSSTLTLSKADYEKHKVYACEVTHQGLSSPVTKSFNRGEC			11.1	1.29	0.000376	291000	0.0502	0.000184	3.67e+06	
900428 (antibody, human IgG1, kappa, L234A L235A, V domains shown, also called anti-TIGIT chimeric antibody 900428) VH: DVQLQESGPGLVKPSQSLSLTCTVTGYSITSDYAWNWIRQFPGNRLEWMGYISYSGAPRYNPSLKSRISITRDTSKNQFFLQLSFVTTEDTATYYCASLGTDYYAMDYWGQGTSVIVSS VL: DIVMTQSHKFMFTSVGDRVSITCKASQHVSNAVAWYQQKPGQSPKLLIHSASYRYTGVPDRFTGRGSGTDFTFTINSVQAEDLAVYYCQQYYSLPWTFGGGTKLEIKR	0.075	0.069								
900423 (antibody, human IgG1, kappa, L234A L235A, V domains shown, also called anti-TIGIT chimeric antibody 900423) VH: DVQLQESGPGLVKPSQSLSLTCTVTGYSITSDYAWNWIRQFPGNRLEWMGYISYSGAPRYNPSLKSRISITRDTSKNQFFLQLSFVTTEDTATYYCASLGTDYYAMDYWGQGTSVIVSS VL: DIVMTQSHKFMFTSVGDRVSITCKASQHVSNAVAWYQQKPGQSPKLLIHSASYRYTGVPDRFIGRGSGTDFTFTISSVQAEDLAVYYCQQYYSLPWTFGGGTKLEIKR	0.06	0.065								
900424 (antibody, human IgG1, kappa, L234A L235A, V domains shown, Chimeric form of B3/29F6; also called ADCC KO type human-mouse chimeric antibody (number 900424)) VH: DVQLQESGPGLVKPSQSLSLTCTVTGYSITSDYAWIWIRQFPGNKVEWMGYITSSGSTSYNPSLKSRISFTRDTSKNQFFLQLTSVTTEDTATYYCARLDFGNYGGAMDYWGQGTSVTVSS VL: DIVMTQSHKFMSTSIGDRVSITCKASQHVSTAVAWYQQKPGQSPKLLIYSASYRYTGVPDRFTGSRSGTDFTFTISSVQAEDLAVYYCQQHYITPYTFGGGTKLEIKR	0.053	0.062								

— patent US20240010730A1 (SHANGHAI HUAOTA BIOPHARMACEUTICAL, published 2024)
